{
  "source": "patent US20080201790A1",
  "about": "“Method and product for regulating cell responsiveness to external signals” (priority 1993, published 2008)",
  "key": {"MAPK": {"tested_on": "MAPK", "experiment": "MAPK activity in COS cells transfected with MEKK or Raf (Mono Q FPLC fractions)", "assay_type": "cell-based", "details": "overexpression in COS1 cells, deprived of serum, no added growth factor", "procedure": "COS cells in 100-mm culture dishes were transfected with either the pCVMV5 expression vector alone (1 μg: control) or the pCVMV5 MEKK construct (1 μg: MEKK). After 48 hours, the cells were placed in serum-free medium containing bovine serum albumin (0.1 percent) for 16 to 18 hours to induce quiescence. […] After centrifugation for 10 minutes at maximum speed in a microfuge, COS cell lysates containing 0.5 to 1 mg of soluble protein were subjected to FPLC on a MONO Q column, and eluted fractions were assayed for MAPK activity according to the method described in Heasley et al., p. 545, 1992, Mol. Biol. Cell, Vol. 3.\nCOS cells were prepared using the method described in Example 3. […] FPLC MONO Q ion-exchange column fractions were prepared as described in Example 3 and assayed for MAPK activity according to the method described in Heasley et al., ibid."}, "GST-Ras^V12": {"tested_on": "GST-Ras^V12", "experiment": "Binding of COS cell-expressed MEKK1 proteins to GST-Ras^V12 agarose", "details": "COS cell lysates, immunoblot", "excerpt": "COS cells were transiently transfected by the DEAE-dextran protocol as generally described in Example 3. Cos cells were transfected with: (1) p-MEKK1 containing a nucleic acid molecule encoding MEKK1 as described in Lange-Carter et al. (Science 260:315-319, […]); (2) p-MEKKNH2 containing a nucleic acid molecule that encodes a 858 base pair Pvull(682)-Ncol(1541) restriction digest fragment of the amino terminus of MEKK1 ligated into pCMV5; (3) p-MEKKCOOH containing a nucleic acid molecule that encodes a 1435 base pair Ncol(1541)-Sspl(2976) restriction digest fragment that includes the entire kinase domain of MEKK1 ligated into pCMV5; (4) pCMV5 without insert; or (5) p-C4Raf containing a nucleic acid molecule that encodes the amino terminus of Raf-1 ligated into pCMV5. COS cells expressing the various MEKK1 proteins were […] COS cells expressing the various MEKK1 proteins were lysed in EB (1% Triton X-100, 10 mM Tris HCl [pH 7.4], 5 mM EDTA, 50 mM NaCl, 50 mM NaF, 0.1% bovine serum albumin, 0.2 U/ml aprotinin, 1 mM phenylmethylsulfonyl fluoride and 2 mM Na3 VO4). The lysates were separated into two equal parts for separate binding reactions. Half of the lysate was incubated with GST agarose (1.5 μg) while half of the lysate was incubated with GST-Ras^V12 agarose (1.5 μg) (purchased from UBI) for 1 hr at 4° C. The GST-Ras^V12 was preincubated at 30° C. for 30 min with 1 mM nucleotide (GDP or GTPγS). The nucleotide binding reaction was stopped by adding MgCl2 to a final concentration of 20 mM. After the 1 hr binding reaction the agarose beads were pelleted at 2000 rpm for 2 min and washed 3 times with PBS+1.0% Triton X-100. The washed agarose beads were boiled in Laemmli SDS sample buffer and the proteins resolved by SDS polyacrylamide gel electrophoresis. Proteins were transferred onto nitrocellulose for immunoblotting with antibodies specific for an NH2 terminal fusion protein (described in Example 1) or a COOH terminal peptide (described in Example 1)."}, "p38 MAPK": {"tested_on": "p38 MAPK", "experiment": "Tyrosine phosphorylation of p38 MAPK in COS cells transfected with MEKK 1 or MEKK 3", "assay_type": "cell-based", "details": "forty-eight hours after transfection", "procedure": "(§1) COS cells were transfected with the expression plasmid pCVM5 ligated to cDNA clones encoding either MEKK 1 or MEKK 3 protein, or a control pCVM5 plasmid lacking MEKK cDNA inserts. Forty-eight hours after transfection, the COS cells were lysed and the lysate fractionated on a Mono Q FPLC column using conditions described in Example 4. The fractions were analyzed for tyrosine phosphorylation of MAP kinase-like enzymes using the kinase assay described in Example 4."}, "[1]": {"tested_on": "p42 and p44 forms of MAPK", "experiment": "Phosphorylation of p42 and p44 MAPK in COS cells transfected with MEKK 1 or MEKK 3", "assay_type": "cell-based", "details": "forty-eight hours after transfection", "procedure": "as §1"}, "MEK-1": {"tested_on": "MEK-1", "experiment": "Phosphorylation of catalytically inactive MEK-1 by Mono Q fractions of MEKK-transfected COS cells", "assay_type": "biochemical, mouse", "procedure": "A cDNA encoding MEK-1 was obtained from mouse B cell cDNA templates with the polymerase chain reaction and oligodeoxynucleotide primers corresponding to portions of the 5′ coding region and 3′ untranslated region of MEK-1. […] Lysates from COS cells transfected with MEKK or mock-transfected (control) were subjected to FPLC on a Mono Q column as described above. […] Reactions were stopped by the addition of 5×SDS sample buffer (10 μl), 1×SDS buffer contains 2 percent SDS, 5 percent glycerol, 62.5 mM tris-HCl (pH 6.8), 5 percent β-mercaptoethanol, and 0.001 percent bromophenol blue. The samples were boiled for 3 minutes and subjected to SDS-PAGE and autoradiography.\nPhosphorylation of kinase MEK-1 and MEKK was visable after 5 minutes and maximal after about 20 minutes. The time-dependent increase in MEKK phosphorylation correlated with a decreased mobility of the MEKK protein during SDS-PAGE. […] The slowly migrating species of MEKK were also detected by immunoblotting. Thus, expression of MEKK appears to activate MAPK by activating MEK."}, "[2]": {"details": "fraction 22, 0.15 μg catalytically inactive MEK-1"}},
  "data": [
    {"molecule": "MEKK 1: MEK kinase 1 protein, SEQ ID No. 2 / 4 (protein) MVTAVPAVFSKLVTMLNASGSTHFTRMRRRLMAIADEVEIAEVIQLGVEDTVDGHQDSLQAVAPTSCLENSSLEHTVHREKTGKGLSATRLSASSEDISDRLAGVSVGLPSSTTTEQPKPAVQTKGRPHSQCLNSSPLSHAQLMFPAPSAPCSSAPSVPDISKHRPQAFVPCKIPSASPQTQRKFSLQFQRNCSEHRDSDQLSPVFTQSRPPPSSNIHRPKPSRPVPGSTSKLGDATKSSMTLDLGSASRCDDSFGGGGNSGNAVIPSDETVFTPVEDKCRLDVNTELNSSIEDLLEASMPSSDTTVTFKSEVAVLSPEKAENDDTYKDDVNHNQKCKEKMEAEEEEALAIAMAMSASQDALPIVPQLQVENGEDIIIIQQDTPETLPGHTKAKQPYREDAEWLKGQQIGLGAFSSCYQAQDVGTGTLMAVKQVTYVRNTSSEQEEVVEALREEIRMMGHLNHPNIIRMLGATCEKSNYNLFIEWMAGGSVAHLLSKYGAFKESVVINYTEQLLRGLSYLHENQIIHRDVKGANLLIDSTGQRLRIADFGAAARLASKGTGAGEFQGQLLGTIAFMAPEVLRGQQYGRSCDVWSVGCAIIEMACAKPPWNAEKHSNHLALIFKIASATTAPSIPSHLSPGLRDVAVRCLELQPQDRPPSRELLKHPVFRTTW", "values": [
      {"measurement": "MAPK activity relative to control cells transfected with plasmid lacking a MEKK 1 cDNA insert", "setting": "MAPK", "result": "four to five times greater"},
      {"measurement": "binding to GST-Ras^V12(GTPγS) relative to GST-Ras^V12(GDP)", "setting": "GST-Ras^V12", "result": "at least 5 fold"},
      {"measurement": "binding to GST-Ras^V12 (in words)", "setting": "GST-Ras^V12", "result": "capable of binding GST-Ras^V12 in a GTP dependent manner"},
      {"measurement": "phosphorylation of p38 MAPK", "setting": "p38 MAPK", "result": "only induces weak phosphorylation of p38 MAPK"},
      {"measurement": "phosphorylation of p42 and p44 MAPK", "setting": "[1]", "result": "does induce phosphorylation of p42 and p44 MAPK"},
      {"measurement": "phosphorylation of MEK-1", "setting": "MEK-1; Mono Q fractions of transfected COS cells", "result": "capable of phosphorylating MEK-1"},
      {"measurement": "time at which phosphorylation of kinase MEK-1 and MEKK was visible", "setting": "MEK-1; [2]", "result": 5, "unit": "min"},
      {"measurement": "time of maximal phosphorylation of kinase MEK-1 and MEKK", "setting": "MEK-1; [2]", "result": "about 20 minutes"}
    ]}
  ]
}
